Assay results published in paper PMC6370633, “Mechanistic Insight Into the Interaction Between Helicobacter pylori Urease Subunit α and Its Molecular Chaperone Hsp60” (Frontiers in Microbiology, 2019).

T1: UreA-GST (UreA fused with GST tag on its C-terminus) (Helicobacter pylori 26695, UniProt P14916 1-238)
T1 construct: source: E. coli BL21(DE3), supernatant immobilized on glutathione Sepharose 4B beads; not shown: GST, C-terminal, kept
T1 sequence: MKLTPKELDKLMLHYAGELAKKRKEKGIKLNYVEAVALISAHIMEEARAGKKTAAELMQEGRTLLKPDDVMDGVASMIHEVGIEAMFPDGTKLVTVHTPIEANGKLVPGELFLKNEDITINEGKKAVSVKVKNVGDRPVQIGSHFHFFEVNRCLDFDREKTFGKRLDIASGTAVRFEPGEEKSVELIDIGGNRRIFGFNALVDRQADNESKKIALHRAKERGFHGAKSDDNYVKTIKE

B1: Helicobacter pylori Hsp60 with a 6 × His tag on its C terminus (natural protein, Helicobacter pylori 26695, UniProt P42383 1-546, looked up)
chain: MAKEIKFSDSARNLLFEGVRQLHDAVKVTMGPRGRNVLIQKSYGAPSITKDGVSVAKEIELSCPVANMGAQLVKEVASKTADAAGDGTTTATVLAYSIFKEGLRNITAGANPIEVKRGMDKAAEAIINELKKASKKVGGKEEITQVATISANSDHNIGKLIADAMEKVGKDGVITVEEAKGIEDELDVVEGMQFDRGYLSPYFVTNAEKMTAQLDNAYILLTDKKISSMKDILPLLEKTMKEGKPLLIIAEDIEGEALTTLVVNKLRGVLNIAAVKAPGFGDRRKEMLKDIAILTGGQVISEELGLSLENAEVEFLGKAGRIVIDKDNTTIVDGKGHSHDVKDRVAQIKTQIASTTSDYDKEKLQERLAKLSGGVAVIKVGAASEVEMKEKKDRVDDALSATKAAVEEGIVIGGGAALIRAAQKVHLNLHDDEKVGYEIIMRAIKAPLAQIAINAGYDGGVVVNEVEKHEGHFGFNASNGKYVDMFKEGIIDPLKVERIALQNAVSVSSLLLTTEATVHEIKEEKAAPAMPDMGGMGGMGGMGGMM
notes: also called recombinant Hsp60; source: E. coli BL21(DE3), purified (Ni-NTA, Sephadex G-75 gel filtration); not shown: His6, C-terminal, kept

What was measured:
[1] = molecular target: T1, UreA-GST (UreA fused with GST tag on …); test: pull-down; GST-fused proteins on glutathione Sepharose 4B beads (20 μl), incubated with 0.4 ml purified Hsp60 (1 mg/ml in 50 mM Tris-HCl, pH 8.0) at 4°C for 2 h; washed four times; Western blot (anti-His) and SDS-PAGE; settings: both partners purified
[2] = molecular target: B1; test: SPR; BIAcore T100; Hsp60 immobilized on CM5 chip (~600 RU); UreA-His or mutants as analytes (0.36-2.19 μM); PBS pH 7.4, 30 μl/min, 25°C; kinetic analysis, global fit to 1:1 Langmuir model; settings: both partners purified

Row | Binder | stoichiometry N [1] | Kd [2] [nM] | koff [2] [s⁻¹] | kon [2] [M⁻¹ s⁻¹]
1 | B1 | ~1 Hsp60:UreA-GST | – | – | –
2 | UreA-His (urease α subunit fused with a His tag on its C-terminus) (natural protein, also called wild-type UreA-His; urease subunit α; source: E. coli BL21(DE3), purified (Ni-NTA); not shown: His tag, C-terminal, kept) MKLTPKELDKLMLHYAGELAKKRKEKGIKLNYVEAVALISAHIMEEARAGKKTAAELMQEGRTLLKPDDVMDGVASMIHEVGIEAMFPDGTKLVTVHTPIEANGKLVPGELFLKNEDITINEGKKAVSVKVKNVGDRPVQIGSHFHFFEVNRCLDFDREKTFGKRLDIASGTAVRFEPGEEKSVELIDIGGNRRIFGFNALVDRQADNESKKIALHRAKERGFHGAKSDDNYVKTIKE | – | 17 | 0.000126 | 7286 ± 15
3 | UreA-His K22A (natural protein, source: E. coli BL21(DE3), purified as wild-type UreA-His; not shown: His tag, C-terminal, kept) MKLTPKELDKLMLHYAGELAKARKEKGIKLNYVEAVALISAHIMEEARAGKKTAAELMQEGRTLLKPDDVMDGVASMIHEVGIEAMFPDGTKLVTVHTPIEANGKLVPGELFLKNEDITINEGKKAVSVKVKNVGDRPVQIGSHFHFFEVNRCLDFDREKTFGKRLDIASGTAVRFEPGEEKSVELIDIGGNRRIFGFNALVDRQADNESKKIALHRAKERGFHGAKSDDNYVKTIKE | – | 310 | 0.00179 | 5840 ± 146
4 | UreA-His K26A (natural protein, source: E. coli BL21(DE3), purified as wild-type UreA-His; not shown: His tag, C-terminal, kept) MKLTPKELDKLMLHYAGELAKKRKEAGIKLNYVEAVALISAHIMEEARAGKKTAAELMQEGRTLLKPDDVMDGVASMIHEVGIEAMFPDGTKLVTVHTPIEANGKLVPGELFLKNEDITINEGKKAVSVKVKNVGDRPVQIGSHFHFFEVNRCLDFDREKTFGKRLDIASGTAVRFEPGEEKSVELIDIGGNRRIFGFNALVDRQADNESKKIALHRAKERGFHGAKSDDNYVKTIKE | – | 460 | 0.0122 | 26200 ± 250
5 | UreA-His R23A (natural protein, source: E. coli BL21(DE3), purified as wild-type UreA-His; not shown: His tag, C-terminal, kept) MKLTPKELDKLMLHYAGELAKKAKEKGIKLNYVEAVALISAHIMEEARAGKKTAAELMQEGRTLLKPDDVMDGVASMIHEVGIEAMFPDGTKLVTVHTPIEANGKLVPGELFLKNEDITINEGKKAVSVKVKNVGDRPVQIGSHFHFFEVNRCLDFDREKTFGKRLDIASGTAVRFEPGEEKSVELIDIGGNRRIFGFNALVDRQADNESKKIALHRAKERGFHGAKSDDNYVKTIKE | – | 280 | 0.00144 | 5070 ± 85
6 | UreA-His K66A (natural protein, source: E. coli BL21(DE3), purified as wild-type UreA-His; not shown: His tag, C-terminal, kept) MKLTPKELDKLMLHYAGELAKKRKEKGIKLNYVEAVALISAHIMEEARAGKKTAAELMQEGRTLLAPDDVMDGVASMIHEVGIEAMFPDGTKLVTVHTPIEANGKLVPGELFLKNEDITINEGKKAVSVKVKNVGDRPVQIGSHFHFFEVNRCLDFDREKTFGKRLDIASGTAVRFEPGEEKSVELIDIGGNRRIFGFNALVDRQADNESKKIALHRAKERGFHGAKSDDNYVKTIKE | – | 210 | 0.00115 | 5400 ± 214
7 | UreA-His E25A (natural protein, source: E. coli BL21(DE3), purified as wild-type UreA-His; not shown: His tag, C-terminal, kept) MKLTPKELDKLMLHYAGELAKKRKAKGIKLNYVEAVALISAHIMEEARAGKKTAAELMQEGRTLLKPDDVMDGVASMIHEVGIEAMFPDGTKLVTVHTPIEANGKLVPGELFLKNEDITINEGKKAVSVKVKNVGDRPVQIGSHFHFFEVNRCLDFDREKTFGKRLDIASGTAVRFEPGEEKSVELIDIGGNRRIFGFNALVDRQADNESKKIALHRAKERGFHGAKSDDNYVKTIKE | – | 140 | 0.00567 | 40200 ± 1670
8 | UreA-His Y15A (natural protein, source: E. coli BL21(DE3), purified as wild-type UreA-His; not shown: His tag, C-terminal, kept) MKLTPKELDKLMLHAAGELAKKRKEKGIKLNYVEAVALISAHIMEEARAGKKTAAELMQEGRTLLKPDDVMDGVASMIHEVGIEAMFPDGTKLVTVHTPIEANGKLVPGELFLKNEDITINEGKKAVSVKVKNVGDRPVQIGSHFHFFEVNRCLDFDREKTFGKRLDIASGTAVRFEPGEEKSVELIDIGGNRRIFGFNALVDRQADNESKKIALHRAKERGFHGAKSDDNYVKTIKE | – | 150 | 0.00164 | 11200 ± 287
9 | UreA-His D68A (natural protein, source: E. coli BL21(DE3), purified as wild-type UreA-His; not shown: His tag, C-terminal, kept) MKLTPKELDKLMLHYAGELAKKRKEKGIKLNYVEAVALISAHIMEEARAGKKTAAELMQEGRTLLKPADVMDGVASMIHEVGIEAMFPDGTKLVTVHTPIEANGKLVPGELFLKNEDITINEGKKAVSVKVKNVGDRPVQIGSHFHFFEVNRCLDFDREKTFGKRLDIASGTAVRFEPGEEKSVELIDIGGNRRIFGFNALVDRQADNESKKIALHRAKERGFHGAKSDDNYVKTIKE | – | 2000 | 0.00227 | 1160 ± 41
